From the DeepSol protein solubility set come the findings set out here.

This data set can be described thus: soluble on expression in E. coli; label from the status in PepcDB or PDB records.
Consider “MINIYYNVEPLRSNEEITDFVNKARNGTHGERNALLILIGLNTGLRMSDILNLKVGQIRYHDIVHITEKKTKKRRVILLTRLRPQINHYIKDLPDNEYLFTNRQHQPLSVNAVYKLFQTIARKMHRTDIGTHTLRKTFGYHYYQQTHDIGTLMMIFNHSNEAITKRYIGLNQDVILKQMAGFQLGLEYEKATNMR”, for which the “soluble on expression in E. coli” value is reported as “not soluble”. For “SMYKVRDISLAEWGRRELELAENEMPGLMELRREYGPSKPLKGAKIAGCLHMTMQTAVLIETLVELGAEVRWASCNIFSTQDHAAAAIAKRGIPVFAWKGETEEEYMWCMKQTLKGFSGDGYPNMLLDDGGDLTNYVLDECKELDGKIYGVSEETTTGVKNLYKRLQRGKLTIPAMNVNDSVTKSKFDNLYGCRESLVDGIKRATDVMIAGKTACVCGYGDVGKGCAAALRGFGARVVVTEVDPINALQAAMEGYQVLLVEDVVEEAHIFVTTTGNDDIITSEHFPRMRDDAIVCNIGHFDTEIQVAWLKANAKERVEVKPQVDRYTMANGRHIILLAEGRLVNLGCASGHPSFVMSNSFCNQVLAQIELWTNRDTGKYPRGAKAQVYFLPKKLDEKVAALHLGKLGAKLTKLTPKQAEYINCPVDGPFKPDHYRY” the value was “soluble”; for “KMGKTPKTEILSFEQYQVTPYLSGLLELDPDTEVFELERLRIADDMPLMFERSYIPAQPFQGLSIADLKRKALYDIFAKDYQETIRLAEEEFYASIALDYEAGLLGIKKGDPVLHIIRKTYNDKNILIELTFSIARADQFRYRVQHHPNG”, “not soluble”. For “MGSDKIHHHHHHMLRLSRELEVGEATVKRWLAGKGLTIDRLERLAGLCGMVLGDLVREAEEAPGVLAHELTLAQERALSSNIFLSFLFMTILNGIQPDETAADFSVPPREMEAALTRLERLALIDRLRSGRVRPLVDRNMVFRKLPLRNLFETHMKRVFFELDYGAPETIYTSEVVKLSVAGAAQLAELLERFRGEVQSLADRDAEKANKDRDWFGVLCVMRPLEMDPIRNAWWELS”, the “soluble on expression in E. coli” value is on record as “not soluble”. For “MGSDKIHHHHHHMADNTDNLNSFRALALQVTCHAVNQATDRHEARSLMQNSINRLAQQIAASIAFIGFDCRLIVLPEYFLTGFPMGDSLAGWAEKACIEMAGAEYEALGKIAQKHKIFLAGNAYEVDPNFPGLYFQTCFILDPSGSIVLRYRRLNSLFAPTPHDVWDKYLDCYGLEGVFPVAKTAIGNLAALASEEILYPEVARCLAMRGAEIFVHSTSEVYNKNLTPKDAAKITRAVENMAYVVSANTAGIANIAIPIASADGGSKIIDHRGIVLAETGAGESMAAFAEIDLGALRRDRRRPGLHNLLARQRFELYAESYHQSHFYPANTMLEGEIDRKHFLQTQQATIDRLAQLGII” the value was “not soluble”; for “GPGSMTTGQQQSIEGLRNELQQLEDSLMVREEALQRKRQQSERLNNELVDAYLSTTSQEESRASANEAYRTASRAKQVLENSETQSNESMWSNRDDYVSQLMAADEERKGVEADIGEVSSRIKELREDKVDAQKRLTVARLMSMLDDLQSLLKKKVYGPSGSEETRAQELLKTVQELSRERERTIHLLSKKEREMASLIDLKQRRIEELRKEFTRNVSMYADSNKRELLNVAQRIQGERHQLLEEMERLEEANRKITDVLMDTKYTTESAIKDRDTALSAVETMGVSTNPERECLQLRERIQKANAERRMYVLKMEEVQSSIDEDTVMYNTRMSKLRKEILFYQDETVRFEKENKDLKHLCDTLAGSLDGSH”, “not soluble”. In the case of “MNRIEHYHDWLRDAHAMEKQAESMLESMASRIDNYPELRARIEQHLSETKNQIVQLETILDRNDISRSVIKDSMSKMAALGQSIGGIFPSDEIVKGSISGYVFEQFEIACYTSLLAAAKNAGDTASIPTIEAILNEEKQMADWLIQNIPQTTEKFLIRSETDGVEAKK”, the “soluble on expression in E. coli” value is recorded as “soluble”. For “MRVLVRDLKAHVGQEVELLGFLHWRRDLGRIQFLLLRDRSGVVQVVTGGLKLPLPESALRVRGLVVENAKAPGGLEVQAKEVEVLSPALEPTPVEIPKEEWRANPDTLLEYRYVTLRGEKARAPLKVQAALVRGFRRYLDRQDFTEIFTPKVVRAGAEGGSGLFGVDYFEKRAYLAQSPQLYKQIMVGVFERVYEVAPVWRMEEHHTSRHLNEYLSLDVEMGFIADEEDLMRLEEALLAEMLEEALNTAGDEIRLLGATWPSFPQDIPRLTHAEAKRILKEELGYPVGQDLSEEAERLLGEYAKERWGSDWLFVTRYPRSVRPFYTYPEEDGTTRSFDLLFRGLEITSGGQRIHRYEELLESLKAKGMDPEAFHGYLEVFKYGMPPHGGFAIGAERLTQKLLGLPNVRYARAFPRDRHRLTP” the value was “soluble”. The result for “MKEHHIPKNSIITVAGTVGVGKSTLTKTLAKRLGFKTSLEEVDHNPYLEKFYHDFERWSFHLQIYFLAERFKEQKTIFEAGGGFVQDRSIYEDTGIFAKMHADKGTMSKVDYKTYTSLFEAMVMTPYFPHPDVLIYLEGDLENILNRIEQRGREMELQTSRSYWEEMHTRYENWISGFNACPVLKLRIEDYDLLNDENSIENIVDQIASVIHDNQKKLEHHHHHH” reads “not soluble”; that for “MYKQILVPVDLNDQGFSDRAVELAVWQAKQANAEIHLLTVLPGIHMSMVATYFPKDAAAKMKQDVKQQLKAFASEHIDDEVIYKVHVAEGKAYATILDYAERLGADLIIMPSHKRSKINKVMLGSVASKVVEYSPINVMVVKPQG”, “not soluble”; that for “MGSDKIHHHHHHADTTDNTTTSSSTSANSGSTVQTKALSKAYVVYGAGLASEDKDTVASALGVKSNYTALTATGSDYATYLNAAGTTDASMISSVTLAPADPGTGVKVNIAKYNGSNNITEVTSQQYAMVATMAGVKDVIITVTADKSVSGESALTGVYKALAADGLTLNSQNTQAANGVLDATQPAIDSNSSDKKYPGKLMSAVGSVSSDLAKQRQNGNELATKADIEEMLQKALAKQGIANQTSSTQITNIAIALSQVQKAPVSTSKTYIKNVTNVADSLANSIGDKMASVKDFANSADAKQAENFIVQIWHNVVNFFKGLIGG”, “not soluble”.

For “MTHPFEPFFDKDSKILILGSFPSIKSRQDGFYYQHPRNRFWPILETLFNAKLENITEQQAFLRKKHIALWDVLQSCKIKNSDDKTISYAKANDLNLILSQTKIQAIFTTGQSAYRFFVKFHPRLEAIALPSTSPANLNFSFEQLLQNYEIIKKFTKLEHHHHHH”, the “soluble on expression in E. coli” value is listed as “not soluble”. The result for “MNSFKKFLNKKRVQNHFKKSGEGVRLSSGESSSQPSAHAGAAQGGQIDRVAAADIAAQAAFKRMQKNEPQQNAGKRRIQMIAKRELEEERRQVEDLNISGTSSLQQPDREQHLEHSSAISRVLYTSELLGEHHIRSKADLLEDIKNFLSDQISEADDENDKVIAAVLMLYSLNKKHPKETAIETICKYCQNILEHPGEDKYKSIRLGNKAFQERVASVVGGRAFLEAVGFTEKSEGEDKFLVFTKPSDVHLVEALEALKDGQAVPIKVARNLEIFKLKEGQKPKAPKLADDFYNLSTAELKAEQRNKEMQVERMLTLRTKEMRQKDEQMTNYRYKYTLIRVRLPGNLLMQGVFGCHEPFSAVRVFVASTLSDALSTSEFTLRDAASQLVEDESASLAQLSLAPAALLHVVFAENLSDYGQIVADEHIEIIQELEASD” reads “not soluble”; that for “MSLEMEKYLSVTTLTKYLKMKFDKDPYLERVYLTGQVSNFRKRPTHQYFSLKDDHAVIQATIWSGIYQKLGFDLEEGMKINVIGRVQVYEPSGSYSIIIEKVEPDGVGALAIQFEQLKKKLTEEGLFQERFKQALPQFSKRIGVVTSRSGAVIRDIITTVSRRFPGVDILLYPTKVQGEGAAEEIARNIARANQRDDLDLLIIGRGGGSIEDLWAFNEEIVVRAIFESRLPVISSVGHETDVTLADFVADRRAATPTAAAELATPVTKLDVLAHLQNQEKRMVTAVRNVLSKKQEALKKCSQSVIFRQPERLYDGYLQRLDQLQLRLKQSLRTRISDNKQLVQARTHQLVQLSPVTKIQRYQDRLGQLDKLLGSQMALVYDAKVAEAKRLSEALLMLDTSRIVARGYAIVKKEESVVDSVESLKKKDQVTLLMRDGQVELEVKDVKTKEIEGHHHHHH”, “not soluble”; that for “MGSDKIHHHHHHMLKSIKSSGVTAVLDHDGFNKRIRVVRYDGAIEKALPDIVAAAKEENAEKIIVYAKQHDEPILAKQLFAPEGYLKGYYLGHSACVMVRYLSESRRQTDSYTEEQEIIEAIYRTAPRLRNDSTPVFTMRKAETNDMYQLSMLYKKVFRTYPTPVFDPAYIEKTMNANTVYYIMLDHDRLISAASAEINPELGHAEITDCAVLPEYRGHSLTSFLIEALEKEMAGEDIVHVFSLARASSFGMNAVLYHSGYQYGGRLINNCFIAEGLENMNIWCKQL”, “not soluble”. With “MGIKHLNLTVADVVAAREFLEKYFGLTCSGTRGNAFAVMRDNDGFILTLMKGKEVQYPKTFHVGFPQESEEQVDKINQRLKEDGFLVEPPKHAHAYTFYVEAPGGFTIEVMC”, the “soluble on expression in E. coli” value is listed as “soluble”. For “MAHHHHHHMFSPVYEDVSGLFGHPMPISGFGPSTELQFPQTSYMTTTTNAPQTPTQQQQQQLAGRATVYSLVDASGVQLHRQAAPPQQIPMSSVPFGAFDGASIVPYEVFMQHQQQQQLAAAGKPTAVHAQDGVKYYLSSSTGAPVMASAGPAATTQANIMQMQQHGGTLYTLESNGTTTALTSTPPAGGLFSGAAAANGAPPSGEYPFYAAATGFLSSGPLGMAPATVGSASVTPYAIQGHMPSASPRARGAVNRSPAATIAGNQHHSNSGNNSSSASTRRENQATLHEM” the value was “not soluble”. The result for “MSFNLSVIGAGLPVAQSTTTLIDALRTHRMAVVQAPPGTGKTTLVPPIAHNVTGGRVIVVAPRRVAVRAAAHHLVQLDQSSCDQPSTHRVGYTIRGERSRGDLVEFVTPGVLLRRLISNPELDGVSAVVVDEVHERQLDTDLVLGMLVELRELRDDLTVIAMSAT” reads “not soluble”; that for “MTLYPFPFTTKKQDAESMVDLFSLIKDYLVDQEDGIRHLITWFLNLVMEEEALLQVGAQRYERTDSRKASRNGYKPRTLLTKYGELELLKPQFREFPFETQVFEKYSRVEQAILSAVAESYLQGVSTRRVDKVMTALGVEGISASSVSRITKELDEKVSEFLSKPIEHEIPYLFIDATYLKVRDGLHYENKALFIVSGVRDDGFREILGARLADSEDSLFWQDLFEDLKERGLRGVKLIVSDGHKGIQKAVRESFIGSSWQMCHVHLIRQALKKVQKKKQKEVADKIKEALVDRHKYNDLIRELDKMEYKSAADTLENFQYDVMNYMQFPQSHWRKIRTTNMMERTNKEIKRRTKVVGAFPNQESVLRLVVSILIDINEDWITGNRYIVMEQ”, “not soluble”; that for “MTEHTGLWLYAVADQLPDGRLPCPAGIDEAPVEAIAHDGLAAVVSPVDLHHYGEEALARRLEDFDWLAATANRHHAVIEAVHHLSTTVPMRLATVYTEPRRVSTLLAEQHDLLRRALDSVAGHTEWGVKAFAVNRPQAPPAAGGEESGAAYLRRRRAELANADAVRQEVWDAAQHAFHELGLLAVAQRRHRPQDAKLTGKPEPMLLNGSFLVEDTEQDAFTKAVSTLTADHPELEIQLSGPWPPYSFAGLAVEA”, “not soluble”.

As for “MELRIGFGFDSHEFVEGKLLILGGVEIEKDYGLKGHSDGDALLHAITDAILGALGERDIGEIFKDTDPRWKNAPSRIFLEKALEVMSEKGFNISNIDCVIVADRPKIAPHKERIKESLSKLLGIPKERISLKGKRREGFCEGNGLVCMCTVLLVKMLEHHHHHH”, the “soluble on expression in E. coli” value is “soluble”.
